# Results taken from the RNAGym collection of RNA variant scans (doi:10.1093/molbev/msab373).
# B1: Azoarcus group I ribozyme (parent)
# chain: GUGCCUUGCGCCGGGAAACCACGCAAGGGAUGGUGUCAAAUUCGGCGAAACCUAAGCGCCCGCCCGGGCGUAUGGCAACGCCGAGCCAAGCUUCGGCGCCUGCGCCGAUGAAGGUGUAGAGACUAGACGGCACCCACCUAAGGCAAACGCUAUGGUGAAGGCAUAGUCCAGGGAGUGGCGAAAGUCACACAAACCGG
# Variants of: B1
# Experiment: reverse-splicing fitness (ratio to wild type); higher = more active; in vitro selection; Mg2+ level not given
# Summary of the method: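 An in vitro group I ribozyme library with randomized positions was T7-transcribed and gel-purified. In triplicate, 10 pmol RNA in EPPS pH 7.5 was reacted with 50 pmoles of a 30-nt RNA substrate for 1 h at 37 °C across several added MgCl2 levels (1–48 mM), then stopped with EDTA. Products were reverse transcribed from a substrate-complementary primer, PCR-amplified and sequenced (HiSeq 4000). Fitness is a variant's read proportion after selection over that before, normalised to wild type.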
row,Variant,reverse-splicing fitness
1,C82G A120C A145G C150A C169U U176A,0.0145
2,C82G A120C A145G C150A C169U U176C,0.0165
3,C82G A120C A145G C150A C169U U176G,0.00589
4,C82G A120C A145G C150A U176A,0.0196
5,C82G A120C A145G C150A U176C,0.034
6,C82G A120C A145G C150A U176G,0.0102
7,C82G A120C A145G C150G,0.0242
8,C82G A120C A145G C150G C169A,0.0104
9,C82G A120C A145G C150G C169A U176A,0.0143
10,C82G A120C A145G C150G C169A U176C,0.0145
11,C82G A120C A145G C150G C169A U176G,0.00912
12,C82G A120C A145G C150G C169G,0.00813
13,C82G A120C A145G C150G C169G U176A,0.0134
14,C82G A120C A145G C150G C169G U176C,0.0134
15,C82G A120C A145G C150G C169G U176G,0.00667
16,C82G A120C A145G C150G C169U,0.0121
17,C82G A120C A145G C150G C169U U176A,0.0128
18,C82G A120C A145G C150G C169U U176C,0.0134
19,C82G A120C A145G C150G C169U U176G,0.00789
20,C82G A120C A145G C150G U176A,0.0102
21,C82G A120C A145G C150G U176C,0.0168

row,Variant,reverse-splicing fitness
1,C82G A120C A145G C150G U176G,0.00687
2,C82G A120C A145G C150U,0.163
3,C82G A120C A145G C150U C169A,0.0102
4,C82G A120C A145G C150U C169A U176A,0.0194
5,C82G A120C A145G C150U C169A U176C,0.0158
6,C82G A120C A145G C150U C169A U176G,0.0065
7,C82G A120C A145G C150U C169G,0.00909
8,C82G A120C A145G C150U C169G U176A,0.0139
9,C82G A120C A145G C150U C169G U176C,0.0205
10,C82G A120C A145G C150U C169G U176G,0.00538
11,C82G A120C A145G C150U C169U,0.0243
12,C82G A120C A145G C150U C169U U176A,0.0184
13,C82G A120C A145G C150U C169U U176C,0.0155
14,C82G A120C A145G C150U C169U U176G,0.00474
15,C82G A120C A145G C150U U176A,0.0566
16,C82G A120C A145G C150U U176C,0.0797
17,C82G A120C A145G C150U U176G,0.0154
18,C82G A120C A145G C169A,0.0105
19,C82G A120C A145G C169A U176A,0.0209
20,C82G A120C A145G C169A U176C,0.0247
21,C82G A120C A145G C169A U176G,0.00477

row,Variant,reverse-splicing fitness
1,C82G A120C A145G C169G,0.00863
2,C82G A120C A145G C169G U176A,0.0164
3,C82G A120C A145G C169G U176C,0.0241
4,C82G A120C A145G C169G U176G,0.00417
5,C82G A120C A145G C169U,0.0256
6,C82G A120C A145G C169U U176A,0.017
7,C82G A120C A145G C169U U176C,0.0174
8,C82G A120C A145G C169U U176G,0.00453
9,C82G A120C A145G U176A,0.0722
10,C82G A120C A145G U176C,0.103
11,C82G A120C A145G U176G,0.0158
12,C82G A120C A145U,0.21
13,C82G A120C A145U C150A,0.0209
14,C82G A120C A145U C150A C169A,0.00989
15,C82G A120C A145U C150A C169A U176A,0.0178
16,C82G A120C A145U C150A C169A U176C,0.0107
17,C82G A120C A145U C150A C169A U176G,0.00421
18,C82G A120C A145U C150A C169G,0.00739
19,C82G A120C A145U C150A C169G U176A,0.014
20,C82G A120C A145U C150A C169G U176C,0.0161
21,C82G A120C A145U C150A C169G U176G,0.00461

row,Variant,reverse-splicing fitness
1,C82G A120C A145U C150A C169U,0.00929
2,C82G A120C A145U C150A C169U U176A,0.0151
3,C82G A120C A145U C150A C169U U176C,0.013
4,C82G A120C A145U C150A C169U U176G,0.00492
5,C82G A120C A145U C150A U176A,0.0188
6,C82G A120C A145U C150A U176C,0.0216
7,C82G A120C A145U C150A U176G,0.00735
8,C82G A120C A145U C150G,0.0201
9,C82G A120C A145U C150G C169A,0.00974
10,C82G A120C A145U C150G C169A U176A,0.0119
11,C82G A120C A145U C150G C169A U176C,0.0102
12,C82G A120C A145U C150G C169A U176G,0.00473
13,C82G A120C A145U C150G C169G,0.00766
14,C82G A120C A145U C150G C169G U176A,0.00782
15,C82G A120C A145U C150G C169G U176C,0.00634
16,C82G A120C A145U C150G C169G U176G,0.00427
17,C82G A120C A145U C150G C169U,0.0102
18,C82G A120C A145U C150G C169U U176A,0.00813
19,C82G A120C A145U C150G C169U U176C,0.012
20,C82G A120C A145U C150G C169U U176G,0.00547
21,C82G A120C A145U C150G U176A,0.00942
